In the supplement of paper PMC9112550, “Optimization of the antimicrobial peptide Bac7 by deep mutational scanning” (BMC Biology, 2022):

Test system: Escherichia coli TOP10
Test: shrunken log2 fold change of peptide-encoding DNA abundance (4.5 h post-induction vs induction); higher = less antimicrobial activity (less host growth inhibition)
Details: time post-induction: 4.5 h; library: site-saturation at positions 5, 18, 19, 20
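Further: peptides expressed intracellularly from a pBAD plasmid library in pooled LB shake-flask culture, induced with 0.3% L-arabinose, DNA abundance read by NGS, three biological replicates, DESeq2 with apeglm shrinkage.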

Sequence | shrunken log2 fold change
RRIRLRPPRLPRPRPRPTVWPRP | 0.387
RRIRLRPPRLPRPRPRPTMGPRP | 0.147
RRIRIRPPRLPRPRPRPALMPRP | -0.028
RRIRMRPPRLPRPRPRPIQFPRP | -0.318
RRIRARPPRLPRPRPRPKMWPRP | 0.553
RRIRWRPPRLPRPRPRPHCIPRP | -0.207
RRIRQRPPRLPRPRPRPKTGPRP | -0.151
RRIRERPPRLPRPRPRPYNHPRP | -0.272
RRIRNRPPRLPRPRPRPYLNPRP | -0.487
RRIRGRPPRLPRPRPRPACYPRP | 0.896
RRIRMRPPRLPRPRPRPSPRPRP | 1.05
RRIRCRPPRLPRPRPRPFWQPRP | -0.0799
RRIRNRPPRLPRPRPRPIIVPRP | -0.286
RRIRSRPPRLPRPRPRPQEAPRP | -0.0452
RRIRARPPRLPRPRPRPQWWPRP | 0.464
RRIRIRPPRLPRPRPRPNDQPRP | -0.43
RRIRQRPPRLPRPRPRPDQIPRP | 0.00408
RRIRVRPPRLPRPRPRPCCHPRP | -0.217
RRIRQRPPRLPRPRPRPKFTPRP | 0.025
RRIRSRPPRLPRPRPRPPHPPRP | 0.325
RRIRVRPPRLPRPRPRPARKPRP | 0.342
RRIRGRPPRLPRPRPRPPGNPRP | 0.432
RRIRIRPPRLPRPRPRPVTIPRP | 0.00236
RRIRARPPRLPRPRPRPGRWPRP | 0.609
RRIRSRPPRLPRPRPRPGEMPRP | 0.336

Sequence | shrunken log2 fold change
RRIRNRPPRLPRPRPRPGCHPRP | -0.318
RRIRMRPPRLPRPRPRPRYQPRP | -0.0321
RRIRVRPPRLPRPRPRPKVCPRP | -0.0503
RRIRCRPPRLPRPRPRPSFHPRP | -0.841
RRIRERPPRLPRPRPRPAKPPRP | -0.248
RRIRMRPPRLPRPRPRPWSAPRP | 0.149
RRIRDRPPRLPRPRPRPSVWPRP | 0.404
RRIRWRPPRLPRPRPRPQTLPRP | 0.132
RRIRRRPPRLPRPRPRPNHWPRP | 0.0169
RRIRTRPPRLPRPRPRPICCPRP | 0.0718
RRIRVRPPRLPRPRPRPVYAPRP | -0.00846
RRIRERPPRLPRPRPRPTLFPRP | 0.0897
RRIRWRPPRLPRPRPRPSCHPRP | -0.066
RRIRTRPPRLPRPRPRPFVYPRP | -0.639
RRIRIRPPRLPRPRPRPQLAPRP | -0.0191
RRIRFRPPRLPRPRPRPHPTPRP | -0.133
RRIRWRPPRLPRPRPRPRVIPRP | -0.233
RRIRNRPPRLPRPRPRPCSLPRP | -0.262
RRIRIRPPRLPRPRPRPFVLPRP | -0.113
RRIRDRPPRLPRPRPRPWPEPRP | -0.0683
RRIRERPPRLPRPRPRPKPAPRP | 0.666
RRIRQRPPRLPRPRPRPIGYPRP | -0.0242
RRIRYRPPRLPRPRPRPFTHPRP | -0.187
RRIRWRPPRLPRPRPRPCRRPRP | 0.0574
RRIRLRPPRLPRPRPRPQVRPRP | 0.0635

Sequence | shrunken log2 fold change
RRIRARPPRLPRPRPRPLIIPRP | -0.415
RRIRNRPPRLPRPRPRPKICPRP | -0.262
RRIRSRPPRLPRPRPRPNMFPRP | -0.289
RRIRPRPPRLPRPRPRPVGRPRP | 0.0963
RRIRERPPRLPRPRPRPIWLPRP | -0.0129
RRIRGRPPRLPRPRPRPSCYPRP | -0.0977
RRIRFRPPRLPRPRPRPRITPRP | -0.657
RRIRFRPPRLPRPRPRPKCPPRP | -0.128
RRIRGRPPRLPRPRPRPWWKPRP | 0.0639
RRIRFRPPRLPRPRPRPEMPPRP | -0.142
RRIRNRPPRLPRPRPRPFVLPRP | -0.451
RRIRARPPRLPRPRPRPSGEPRP | 0.65
RRIRWRPPRLPRPRPRPWSGPRP | 0.076
RRIRTRPPRLPRPRPRPCVLPRP | 0.0134
RRIRSRPPRLPRPRPRPDSWPRP | 0.0247
RRIRFRPPRLPRPRPRPAHDPRP | 0.0907
RRIRVRPPRLPRPRPRPRFNPRP | -0.264
RRIRQRPPRLPRPRPRPSGKPRP | -0.147
RRIRYRPPRLPRPRPRPFRLPRP | -0.0183
RRIRWRPPRLPRPRPRPGIFPRP | 0.0995
RRIRSRPPRLPRPRPRPNSPPRP | -0.149
RRIRARPPRLPRPRPRPTIHPRP | -0.0543
RRIRRRPPRLPRPRPRPIPTPRP | 0.063
RRIRVRPPRLPRPRPRPEHTPRP | 0.224
RRIRARPPRLPRPRPRPMGYPRP | 0.0315
